According to patent US20260028402A1 (published 2026):
Where two headings read alike, the source gives them in different places.

How the values were obtained:
CynoCD100-His [1] = target: CynoCD100-His (cynomolgus monkey); experiment: ELISA
[2] = target: T1, full-length human CD100 protein HuCD100 on cells (human, UniProt Q92854 22-862); experiment: FACS; HuPBMC cells
HuCD100-His [3] = target: T2, HuCD100-His (human, UniProt Q92854 22-734); experiment: ELISA; FIG. 5A
[4] = target: T1, full-length human CD100 protein HuCD100 …; experiment: FACS
[5] = target: T3, HuCD100-Fc (in-house prepared) (human, UniProt Q92854 22-734, biotinylated in the Plexin binding and blocking assays (sites not given)); experiment: FACS blocking; HuPlexin-B2-HEK293, FIG. 12C
MusCD100-His = target: T4, MusCD100-His (mouse, UniProt O09126 24-733); experiment: ELISA; FIG. 5E
T4 chain: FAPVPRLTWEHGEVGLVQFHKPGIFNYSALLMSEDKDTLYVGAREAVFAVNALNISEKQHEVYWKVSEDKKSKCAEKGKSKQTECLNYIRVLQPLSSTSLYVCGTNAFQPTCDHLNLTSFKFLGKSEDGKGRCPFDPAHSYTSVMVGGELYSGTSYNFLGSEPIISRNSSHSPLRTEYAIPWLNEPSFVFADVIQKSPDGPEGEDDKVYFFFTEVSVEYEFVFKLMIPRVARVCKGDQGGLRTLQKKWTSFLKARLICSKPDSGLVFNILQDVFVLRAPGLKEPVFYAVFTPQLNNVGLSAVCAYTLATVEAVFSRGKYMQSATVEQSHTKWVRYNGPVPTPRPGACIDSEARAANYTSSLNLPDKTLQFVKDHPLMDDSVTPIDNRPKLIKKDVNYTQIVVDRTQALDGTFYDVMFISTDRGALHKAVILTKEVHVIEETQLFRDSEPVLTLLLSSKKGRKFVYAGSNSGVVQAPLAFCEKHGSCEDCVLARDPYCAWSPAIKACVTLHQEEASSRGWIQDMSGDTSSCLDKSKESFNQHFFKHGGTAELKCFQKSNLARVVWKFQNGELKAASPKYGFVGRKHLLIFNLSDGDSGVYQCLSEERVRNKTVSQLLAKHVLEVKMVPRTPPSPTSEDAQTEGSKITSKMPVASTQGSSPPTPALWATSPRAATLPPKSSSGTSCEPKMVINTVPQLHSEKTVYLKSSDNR

[6] = target: T3, HuCD100-Fc (in-house prepared); experiment: FACS blocking; HuPlexin-B1-HEK293, FIG. 12A
HuCD100-His [7] = target: T2, HuCD100-His; experiment: ELISA; FIG. 5D
[8] = target: T5, full-length mouse CD100 protein MusCD100 on cells (mouse, UniProt O09126 24-861); experiment: FACS
T5 chain: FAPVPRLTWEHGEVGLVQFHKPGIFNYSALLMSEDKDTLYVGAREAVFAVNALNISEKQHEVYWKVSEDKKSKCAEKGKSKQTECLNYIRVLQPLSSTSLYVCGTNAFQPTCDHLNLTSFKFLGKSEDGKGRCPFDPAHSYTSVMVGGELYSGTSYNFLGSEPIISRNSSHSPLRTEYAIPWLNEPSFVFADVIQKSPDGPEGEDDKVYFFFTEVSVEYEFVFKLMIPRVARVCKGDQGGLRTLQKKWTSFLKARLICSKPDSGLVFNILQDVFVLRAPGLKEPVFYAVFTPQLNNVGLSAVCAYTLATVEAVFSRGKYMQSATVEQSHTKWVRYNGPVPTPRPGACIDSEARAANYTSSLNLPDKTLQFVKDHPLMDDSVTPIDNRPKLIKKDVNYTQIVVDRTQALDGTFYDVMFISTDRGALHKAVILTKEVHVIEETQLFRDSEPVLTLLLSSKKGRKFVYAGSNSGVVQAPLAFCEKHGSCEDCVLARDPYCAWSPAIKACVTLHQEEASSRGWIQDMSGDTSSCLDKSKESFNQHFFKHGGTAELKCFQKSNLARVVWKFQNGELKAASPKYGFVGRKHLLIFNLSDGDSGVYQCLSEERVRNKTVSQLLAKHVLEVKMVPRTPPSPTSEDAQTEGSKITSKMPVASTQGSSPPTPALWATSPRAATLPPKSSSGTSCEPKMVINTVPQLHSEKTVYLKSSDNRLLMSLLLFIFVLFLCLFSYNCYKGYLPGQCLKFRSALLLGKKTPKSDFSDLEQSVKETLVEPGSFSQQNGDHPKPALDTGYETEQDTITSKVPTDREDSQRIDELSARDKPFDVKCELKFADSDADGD

[9] = target: T1, full-length human CD100 protein HuCD100 …; experiment: FACS; remark: listed apart in the source
CynoCD100-His [10] = target: CynoCD100-His (cynomolgus monkey); experiment: ELISA; FIG. 5C
[11] = target: T1, full-length human CD100 protein HuCD100 …; experiment: FACS; HuPBMC cells; remark: listed apart in the source
CynoCD100-Fc = CynoCD100-Fc (cynomolgus monkey); experiment: ELISA
CynoCD100-His [12] = target: CynoCD100-His (cynomolgus monkey); experiment: ELISA; remark: listed apart in the source
[13] = target: T5, full-length mouse CD100 protein …; experiment: FACS

EC50 (CynoCD100-His [1]): 0.0938 nM | EC50 [2]: 0.412 nM | EC50 (HuCD100-His [3]): 0.0383 nM | EC50 [4]: 0.608 nM | IC50 [5]: 1.45 nM | EC50 (MusCD100-His): 0.143 nM | IC50 [6]: 0.896 nM | EC50 (HuCD100-His [7]): 0.0376 nM | EC50 [8]: 0.274 nM | EC50 [9]: 0.138 nM | EC50 (CynoCD100-His [10]): 0.117 nM | EC50 [11]: 0.479 nM | EC50 (CynoCD100-Fc): 0.388 µg/mL | EC50 (CynoCD100-His [12]): 0.128 µg/mL | EC50 [13]: 0.276 nM
B1: Pepinemab (antibody, V domains shown)
VH: QVQLVQSGAEVKKPGSSVKVSCKASGYSFSDYYMHWVRQAPGQGLEWMGQINPTTGGASYNQKFKGKATITVDKSTSTAYMELSSLRSEDTAVYYCARYYYGRHFDVWGQGTTVTVSS
VL: DIVMTQSPDSLAVSLGERATINCKASQSVDYDGDSYMNWYQQKPGQPPKLLIYAASNLESGVPDRFSGSGSGTDFTLTISSLQAEDVAVYYCQQSNEDPYTFGQGTKLEIK
